# According to patent US20230088461A1 (NANJING LEGEND BIOTECH, published 2023):
# Positions count from the first letter of the chain named.
# B1: LAb19301 (antibody, V domains shown)
# VH: DVQLQESGPDLVKPSQSLSLTCTVTGYSITSGFSWHWIRQFPGHKLEWMGFMQYSGNTNYNPSLKSRISFTRDTSKNQFFLQLKSVTPEDTATYYCARREEGAWFAYWGQGTLVTVSA
# VL: DVVMTQTPLSLPVSLGDQASISCGSSQSLVHSNGNTYLHWYLQKPGQSPKLLIYKVSNRFSGVPDRFSGSGSGTDFTLKISRVEAEDLGVYFCSQSTHFPFTFGSGTKLEIK
# notes: Mouse monoclonal antibody purified from hybridoma supernatant
# B2: LAb19306 (antibody, V domains shown)
# VH: EVQLVESGGGLVKPGGSLKLSCAASGFAFSTYDMSWVRQTPERRLEWVAYISSGGATTYYPDSVKGRFTISRDNAKNTLYLQMSSLKSEDTAMYYCARLSLMIRGWFAYWGQGTLVTVSA
# VL: B1 VL with G24R, F99V, F101Y, S105G
# notes: as for B1
# B3: LAb19302 (antibody, V domains shown)
# VH: B2 VH with E1A, K13R, D33G, R43T, R98S, L101I
# VL: B1 VL with G24R, L51V, F99V, F101Y, S105G
# notes: as for B1
# B4: LAb19308 (antibody, V domains shown)
# VH: B2 VH with S30I, D33G, R43K, T57N, R98S, L101T, M102L, I103V
# VL: B1 VL with G24R, F99V, F101Y, S105G
# notes: as for B1
# B5: LAb19304 (antibody, V domains shown)
# VH: QVQLQQSGAELVRPGASVTLSCKASGYTFTAYEMHWVKQTPVHGLEWIGGIDPETGNTAYSQKFKGKATLTADKSSSTAYMEVRSLTSEDSAVYYCSRYYSFAYWGQGTLVTVSA
# VL: DVLMTQTPLSLPVSLGDQASISCRSSQTIVHSNGNTYLEWYLQKPGQSPKLLIYKVSNRFSGVPDRFSGSGSGTDFTLKISRVEAEDLGVYYCFQVSHVPYTFGGGTKLEIK
# notes: as for B1
# B6: LAb19305 (antibody, V domains shown)
# VH: B5 VH with H43Y, K63N
# VL: B5 VL
# notes: as for B1
# B7: LAb19309 (antibody, V domains shown)
# VH: B5 VH with A31D, S97T
# VL: B5 VL with S14N, K79R
# notes: as for B1
# B8: LAb19307 (antibody, V domains shown)
# VH: EVQLVESGGDLVKPGGSLKLSCAASGFAFGTYDMSWVRQTPEKRLEWVAYISSGGNSPYYPQTVKGRFTISRDNAKNTLYLQMSSLKSEDTAMYYCARQNIARRGAMDFWGQGASVTVSS
# VL: B1 VL with M4L, T7S, L11Q, G24T, V30L, F99V, F101P, S105G
# notes: as for B1
# B9: LAb19310 (antibody, V domains shown)
# VH: EVQLQQSGPELVKPGPSLKISCKASGYSFTVSPMTWVKQSHGKNLEWIGLIHPYNGDTTYNQKFKGKATLTVDKSSSTAYMELLSLTSEDSAVYYCARWGNYYPYAMDYWGQGTSVTVSS
# VL: DIVMTQSQKFMSTSVGDRVSITCKASQNVRSTVAWYQQKPGQSPKALIYLTSNRHTGVPDRFTGSGSGTDFTLTISNVQSEDLADYFCLQHWNYPYTFGGGTKLEIK
# notes: as for B1
# B10: LAb19303 (antibody, V domains shown)
# VH: B5 VH with K23E, T30N, A31D, G50A, N57A, S61N, V83L, S91T, S97T
# VL: B5 VL with T28S, I29F, E39Q, V96G
# notes: as for B1
# B11: 9VH1VL3-hIgG1 (antibody, V domains shown)
# VH: QVQLVQSGAEVKKPGASVKVSCKASGYTFTDYEMHWVRQAPGQRLEWMGGIDPETGNTAYSQKFKGRVTITRDTSASTAYMELSSLRSEDTAVYYCARYYSFAYWGQGTLVTVSS
# VL: DIVMTQSPDSLAVSLGERATINCRSSQTIVHSNGNTYLEWYQQKPGQPPKLLIYKVSNRFSGVPDRFSGSGSGTDFTLTISSLQAEDVAVYYCFQVSHVPYTFGGGTKLEIKR
# notes: Humanized LAb19309, full-length human IgG1/kappa; also called 9VH1VL3-hIgG1 mAb
# B12: 9VH3VL3-hIgG1 (antibody, V domains shown)
# VH: B11 VH with P41T, R44G, I70M, D73N, A76I
# VL: B11 VL
# notes: Humanized LAb19309, full-length human IgG1/kappa
# B13: 9VH3VL2-hIgG1 (antibody, V domains shown)
# VH: B11 VH with P41T, R44G, I70M, D73N, A76I
# VL: DIVMTQSPLSLPVTPGEPASISCRSSQTIVHSNGNTYLEWYLQKPGQSPQLLIYKVSNRFSGVPDRFSGSGSGTDFTLKISRVEAEDVGVYYCFQVSHVPYTFGGGTKLEIKR
# notes: Humanized LAb19309, full-length human IgG1/kappa; also called 9VH3VL2-hIgG1 mAb
# B14: Chimeric LAb19309-hIgG1 (antibody, V domains shown)
# VH: B5 VH with A31D, S97T
# VL: B13 VL with I2V, V3L, S7T, T14N, P15L, E17D, P18Q, Q50K, K79R, V88L
# notes: The mouse VH/VL numbers follow the parallel order of the lists, as for LAb19309
# B15: 5VH2VL3-hIgG1 (antibody, V domains shown)
# VH: B11 VH with D31A, R44G, K63N, I70M, A76T, A79V
# VL: B11 VL
# notes: Humanized LAb19305, full-length human IgG1/kappa
# B16: 5VH2VL2-hIgG1 (antibody, V domains shown)
# VH: B11 VH with D31A, R44G, K63N, I70M, A76T, A79V
# VL: B13 VL
# notes: as for B15
# B17: 5VH1VL2-hIgG1 (antibody, V domains shown)
# VH: B11 VH with D31A, K63N
# VL: B13 VL
# notes: as for B15
# B18: Chimeric LAb19305-hIgG1 (antibody, V domains shown)
# VH: B5 VH with H43Y, K63N
# VL: B13 VL with I2V, V3L, S7T, T14S, P15L, E17D, P18Q, Q50K, V88L
# notes: The mouse VH/VL numbers follow the parallel order of the lists, as for LAb19305
# Target: T1, cynomolgus monkey GPC3 on SK-HEP-1-cmGPC3 cells (cynomolgus monkey, UniProt A0A2K5VK50 24-553)
# T1 construct: whole, on cells
# Experiment: flow cytometry on SK-HEP-1-cmGPC3 cells, PE anti-mouse IgG Fc; further: test concentration or dose not given here
# Experimental: The SK-HEP-1-huGPC3 cells and SK-HEP-1-cmGPC3 were plated in 96-well U-bottom plates (BD) at a density of 1×10⁵ cells/well. The purified antibodies were diluted in the staining buffer and incubated with cells for 1 hour at 4° C. The cells were then washed twice with staining buffer (BSA/1×PBS). PE-conjugated goat anti-mouse IgG Fc antibody was added and incubated at 4° C. in the dark for 30 minutes. The cells were then washed twice and re-suspended in 100 μL staining buffer. The fluorescence intensity was measured by flow cytometry and analyzed by FlowJo.
row,Binder,"Positive population, % [%]"
1,B1,18.5
2,B2,3.32
3,B3,12.3
4,B4,9.55
5,B5,94.6
6,B6,94.2
7,B7,91.9
8,B8,11.6
9,B9,22.3

# Target: T2, human GPC3 on SK-HEP-1-huGPC3 cells (human, UniProt P51654 25-554)
# T2 construct: whole, on cells
# Experiment: flow cytometry on SK-HEP-1-huGPC3 cells, PE anti-mouse IgG Fc; further: test concentration or dose not given here
row,Binder,"Positive population, % [%]"
1,B1,72.6
2,B2,86.2
3,B3,91.5
4,B4,91.4
5,B5,91.9
6,B6,92.6
7,B7,92.7
8,B8,92.9
9,B9,91.3

# Target: T3, mouse GPC3 on SK-HEP-1-muGPC3 cells (mouse, UniProt Q8CFZ4 25-553)
# T3 construct: whole, on cells
# T3 sequence (Q8CFZ4 25-553 limits assumed): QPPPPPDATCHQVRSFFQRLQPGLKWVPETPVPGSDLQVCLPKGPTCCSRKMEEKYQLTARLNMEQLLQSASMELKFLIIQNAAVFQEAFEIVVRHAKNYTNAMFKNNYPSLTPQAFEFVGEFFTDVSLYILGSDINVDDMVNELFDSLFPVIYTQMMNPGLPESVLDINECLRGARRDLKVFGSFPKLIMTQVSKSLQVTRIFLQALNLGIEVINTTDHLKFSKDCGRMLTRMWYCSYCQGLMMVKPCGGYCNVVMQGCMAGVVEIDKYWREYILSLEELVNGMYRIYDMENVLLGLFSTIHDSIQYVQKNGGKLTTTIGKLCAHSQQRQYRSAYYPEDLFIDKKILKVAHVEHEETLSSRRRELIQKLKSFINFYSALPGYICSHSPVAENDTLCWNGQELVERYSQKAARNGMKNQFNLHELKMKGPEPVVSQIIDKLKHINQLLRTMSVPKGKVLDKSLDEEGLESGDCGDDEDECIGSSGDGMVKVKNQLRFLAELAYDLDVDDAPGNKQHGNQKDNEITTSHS
# Experiment: flow cytometry on SK-HEP-1-muGPC3 cells, PE anti-mouse IgG Fc; further: test concentration or dose not given here
row,Binder,"Positive population, % [%]"
1,B1,17.5
2,B2,75.8
3,B3,81.8
4,B4,82.4
5,B5,25.6
6,B6,17
7,B7,1.02
8,B8,83.3
9,B9,83.9
10,B10,0.72

# Target: T4, GPC3 (analyte of Tables 9 and 10) (UniProt P51654 25-559, limits assumed)
# Experiment: SPR (Biacore T200), purified antibody captured through Fc, GPC3 as analyte, 1:1 model
# Experimental: (§1) Antibodies were immobilized on the sensor chip through Fc capture method. GPC3 was used as the analyte. The surface was regenerated before the injection of another antibody. The process was repeated until all antibodies are analyzed. The off-rates of antibodies were obtained from fitting the experimental data locally to 1:1 interaction model using the Biacore T200 evaluation software. The data of dissociation (kd) and association (ka) rate constants (KD) were calculated from the ration of kd over ka.
Binder,Kd [nM],koff [s⁻¹],kon [M⁻¹ s⁻¹]
B11,1.53,0.00014,91300
B12,1.13,0.000145,129000
B13,0.672,9.01e-05,134000
B14,3.56,0.000239,67100

# Target: T4, GPC3 (analyte of Tables 9 and 10)
# Experiment: as above
# Remark: another data set of the same source
# Experimental: as §1
Binder,Kd [nM],koff [s⁻¹],kon [M⁻¹ s⁻¹]
B15,0.544,8.76e-05,161000
B16,0.572,8.91e-05,156000
B17,1.1,0.000117,107000
B18,0.84,0.000103,123000

# Target: T5, recombinant human GPC3 (human, UniProt P51654 25-559, limits assumed)
# T5 construct: also called hGPC3
# Experiment: SPR (Biacore), antibody as ligand, recombinant human GPC3 as analyte, 1:1 Langmuir model
# Experimental: The binding kinetics of the antibodies to recombinant human GPC3 were measured by the surface plasmon resonance (SPR) (e.g., Biacore). Binding rate (Kₐ) and dissociation rates (Kd) were calculated using a simple one-to-one Langmuir binding model (Biacore Evaluation Software). The equilibrium dissociation constant (KD) is calculated as the ratio Kd/Kₐ.
Binder,Kd [nM],koff [s⁻¹],kon [M⁻¹ s⁻¹]
B1,122,0.00207,16900
B2,28.4,0.00077,27100
B3,71.2,0.00184,25800
B4,41.4,0.00102,24700
B5,5.11,0.000138,27000
B6,4.19,0.00013,31100
B7,8.38,0.000195,23300
B8,58.7,0.00178,30200
B9,12.6,0.000465,36900
